Assay results: patent publication US7056679 (ANTYRA, dated 2006)
No end group written: not given here.

B1: DGI-2-20F-PP-A3 (peptide)
peptide: SLFERSARSRYHGSPDCNGS
notes: on M13 phage, pIII fusion with E-tag
B2: DGI-2-40F-3-D12 (peptide)
peptide: QGSAHVVRPPGVYDVPWKVGMFFHPQNWPNSWGRAYFRSG
notes: as for B1
B3: DGI-2-20F-PP-C10 (peptide)
peptide: DRSRAPLCADKSGRWQRYRR
notes: as for B1
B4: DGL-2-20R-3-B6 (peptide)
peptide: TSCQVMFLAGQHLLSRVPRL
notes: as for B1
B5: DGI-2-40F-4-F6 (peptide)
peptide: SYRNFAMQSSLQVRRGSVVEDGTCWWEGVRCYSG
notes: as for B1
B6: DGI-2-40F-3-D7 (peptide)
peptide: ALRSLGSGGFGWQAGRASPQGMTHFPYFGWSGMPTARVRP
notes: as for B1
B7: DGI-2-20R-3-B7 (peptide)
peptide: SWRLWVSGELQGDRRKGLRG
notes: as for B1
B8: DGI-2-20F-3-C1 (peptide)
peptide: GSVLERGCLEFSGFCFSLGH
notes: as for B1
B9: DGI-2-40F-3-D11 (peptide)
peptide: LHFGSVMGWRPPGSLWSRPFGQVHPRSWSGS
notes: as for B1
B10: DGI-2-20R-4-H12 (peptide)
peptide: MSTLQGPGHLFQMLRRASLG
notes: as for B1
B11: DGL-2-20R-3-D6 (peptide)
peptide: ACSVGTALVFPQRWWYLGRS
notes: as for B1
B12: DGI-2-40F-3-D6 (peptide)
peptide: GLEPVPFQTDKRIAMGWTREWLVNGYGAAHRRDARMQSGH
notes: as for B1
B13: DGI-2-20C-4-H316 (peptide)
peptide: RWSICRGLQYSIPGCAVEDLSDVMA
notes: as for B1
B14: DGI-2-20R-4-F6 (peptide)
peptide: GNKCFPPHDLFWDPCDQLQS
modifications: not fully specified (bridges); cysteine pairing not given here
notes: as for B1
B15: DGI-2-20F-PP-D9 (peptide)
peptide: VRAVYSRDAYNEVGRWMRVGI
notes: as for B1
B16: DGI-2-20F-3-A7 (peptide)
peptide: LSLLSVVVRSMGASAPQRQV
notes: as for B1
B17: DGI-2-20F-3-C12 (peptide)
peptide: LTPYSLARSWLSGRPSTGAT
notes: as for B1
B18: DGI-2-40F-3-C92 (peptide)
peptide: RFWSVSYQGGRVMCREWGYCLPI
modifications: not fully specified (bridges); cysteine pairing not given here
notes: as for B1
B19: DGI-2-20F-3-B102 (peptide)
peptide: GLRACDTYLGFCVGARRIDD
notes: as for B1
B20: DGI-2-20R-4-E2 (peptide)
peptide: TANGHRYGGCGLWCKWMSGM
modifications: not fully specified; cysteine pairing not given here
notes: as for B1
B21: DGI-2-20R-4-H7 (peptide)
peptide: LSHPMSPLRAASQMALTQGV
notes: as for B1
B22: DGI-2-20E-3-A1 (peptide)
peptide: CRNFGVIWGAGWVSPGCEDI
modifications: not fully specified
notes: as for B1
B23: DGI-2-20R-3-C10 (peptide)
peptide: SLSLYWDAQVGCEVFWGYCV
modifications: not fully specified; cysteine pairing not given here
notes: as for B1

Target: T1, DGI-2 (UniProt Q15004 1-111, limits assumed)
T1 construct: Soluble recombinant DGI-2 made by in vitro translation (RTS, pIVEX2.3-MCS vector) and coated on plates for the ELISA; vector tag not described; also called KIAA0101; DGI-2 polypeptide
T1 sequence (looked up): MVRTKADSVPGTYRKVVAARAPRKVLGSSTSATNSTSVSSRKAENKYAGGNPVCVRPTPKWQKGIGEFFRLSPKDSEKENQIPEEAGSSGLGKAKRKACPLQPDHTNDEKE
Assay: phage ELISA, coated DGI-2
Protocol: For analysis of individual target binders, colonies were picked and phage prepared as described above using helper phage, M13KO7. Ninety-six-well microtiter plates were coated with 500 ng/well of specific target protein, 500 ng/well lactate dehydrogenase (LDH) irrelevant or non-specific target, 500 ng/well of positive control antibody raised against ETAG, and negative control of non-fat milk powder-PBS 2% at 4° C. overnight. Plates were then blocked with 350 microliters/well PBS containing 2% non-fat milk for 1 hr at room temperature. One hundred microliters per well of phage from isolated clones were added and plates were incubated at room temperature for 2 hr after centrifuging samples for 20 minutes at 3500 rpm at 4° C. The phage solution was then removed, and the wells were washed three times with PBS at room temperature. Antibody raised against M13 conjugated to horseradish peroxidase (Pharmacia) was diluted 1:3000 in PBS-Tween and added to each well (100 µl/well). Incubation was for 1 hr at room temperature, followed by washing with PBS-(0.5%) Tween 3 times as described. Color was developed by addition of ABTS solution (100 µl/well; Boehringer, Indianapolis, Ind.). Plates were analyzed at 405 nm. A clone was considered "positive" if the $A405$ of the well was $\geq$2-fold over background.

| Binder | binding result |
| --- | --- |
| B1 | binds |
| B2 | binds |
| B3 | binds |
| B4 | binds |
| B5 | binds |
| B6 | binds |
| B7 | binds |
| B8 | binds |
| B9 | binds |
| B10 | binds |
| B11 | binds |
| B12 | binds |
| B13 | binds |
| B14 | binds |
| B15 | binds |
| B16 | binds |
| B17 | binds |
| B18 | binds |
| B19 | binds |
| B20 | binds |
| B21 | binds |
| B22 | binds |
| B23 | binds |
